Biological target: the molecule itself
Assay: SEC

B1: human ornithine transcarbamylase labeled with 3x FLAG at the C-terminus (enzyme, UniProt P00480 33-354, looked up)
chain: NKVQLKGRDLLTLKNFTGEEIKYMLWLSADLKFRIKQKGEYLPLLQGKSLGMIFEKRSTRTRLSTETGFALLGGHPCFLTTQDIHLGVNESLTDTARVLSSMADAVLARVYKQSDLDTLAKEASIPIINGLSDLYHPIQILADYLTLQEHYSSLKGLTLSWIGDGNNILHSIMMSAAKFGMHLQAATPKGYEPDASVTKLAEQYAKENGTKLLLTNDPLEAAHGGNVLITDTWISMGQEEEKKKRLQAFQGYQVTMKTAKVAASDWTFLHCLPRKPEEVDDEVFYSPRSLVFPEAENRKWTIMAVMVSLLTDYSPQLQKPKF
For B1, the “stoichiometry N” value was 3.

From article PMC10372164 (Molecular Therapy. Nucleic Acids, 2023)
